Measured values taken from article PMC10041115, “Cryo-EM structure of the four-subunit Rhodobacter sphaeroides cytochrome bc1 complex in styrene maleic acid nanodiscs” (Proceedings of the National Academy of Sciences of the …, 2023).

Key:
[1] = biological target: T1, four-subunit cytochrome bc1 complex (WT) in SMA nanodiscs (Cereibacter sphaeroides, UniProt Q02761+Q02762); experiment: cryo-EM structure, […] Å; assay type: binding; conditions: natively bound, co-purified; Qo site of one cyt b; isoprene tail truncated in model; redox state not determined; H-bond to Rieske His152
T1 construct: gene petB; native purification from photosynthetically grown cells, SMA lipid nanodisc, His10 tag on cyt c1, dimer; SIV 124 residues, 79-107 resolved; with Cytochrome c1; Ubiquinol-cytochrome c reductase subunit IV

[2] = biological target: T2, cytochrome b subunit of the Rhodobacter sphaeroides cytochrome bc1 complex (Rhodobacter sphaeroides, UniProt Q02761 1-445); experiment: cryo-EM structure; conditions: both partners purified
T2 construct: also called cyt b; source: endogenous, R. sphaeroides grown photosynthetically; SMA-solubilised membranes, purified in native nanodiscs (Ni-NTA, sucrose gradient, SEC)
T2 sequence (looked up): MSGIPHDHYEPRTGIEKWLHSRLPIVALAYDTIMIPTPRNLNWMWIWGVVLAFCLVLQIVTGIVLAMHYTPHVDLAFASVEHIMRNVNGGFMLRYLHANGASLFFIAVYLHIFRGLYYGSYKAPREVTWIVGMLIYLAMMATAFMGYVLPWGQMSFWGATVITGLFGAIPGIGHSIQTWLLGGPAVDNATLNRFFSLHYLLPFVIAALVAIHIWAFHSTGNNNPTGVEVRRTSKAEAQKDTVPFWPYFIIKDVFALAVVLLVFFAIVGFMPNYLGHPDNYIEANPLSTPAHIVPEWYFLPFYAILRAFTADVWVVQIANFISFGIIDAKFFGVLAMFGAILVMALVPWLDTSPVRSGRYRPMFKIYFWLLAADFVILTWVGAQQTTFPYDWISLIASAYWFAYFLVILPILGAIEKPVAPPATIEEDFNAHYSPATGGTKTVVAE

[3] = biological target: the molecule itself; experiment: cryo-EM structure; purified four-subunit cyt bc1 in SMA native lipid nanodiscs, no inhibitors added, 20 mM Tris-HCl pH 8, 200 mM NaCl; C1 consensus map at 2.9 Å and a focused class at 3.75 Å (FSC 0.5)

In the case of `COC1=C(OC)C(=O)C(C/C=C(\C)CC/C=C(\C)CC/C=C(\C)CC/C=C(\C)CC/C=C(\C)CC/C=C(\C)CC/C=C(\C)CC/C=C(\C)CC/C=C(\C)CCC=C(C)C)=C(C)C1=O` [U10, ubiquinone-10], the “cryo-EM structure, 2.9 Å” value [1] is reported as “a ubiquinone-10 molecule bound in the Qo site of one of the cyt b subunits”.

B1: Rieske iron-sulfur protein subunit of the Rhodobacter sphaeroides cytochrome bc1 complex (natural protein, UniProt Q02762 1-187, looked up)
chain: MSNAEDHAGTRRDFLYYATAGAGAVATGAAVWPLINQMNPSADVQALASIFVDVSSVEPGVQLTVKFLGKPIFIRRRTEADIELGRSVQLGQLVDTNARNANIDAGAEATDQNRTLDEAGEWLVMWGVCTHLGCVPIGGVSGDFGGWFCPCHGSHYDSAGRIRKGPAPENLPIPLAKFIDETTIQLG
notes: also called Rieske subunit; Rieske ISP; source: endogenous, R. sphaeroides grown photosynthetically; SMA-solubilised membranes, purified in native nanodiscs (Ni-NTA, sucrose gradient, SEC)
B1: binds [2].

B2: four-subunit Rhodobacter sphaeroides cytochrome bc1 complex (one monomer of the dimeric complex: cyt b, cyt c1, Rieske subunit, SIV) (complex)
chain 1: T2 sequence (looked up)
chain 2: AGGGHVEDVPFSFEGPFGTFDQHQLQRGLQVYTEVCAACHGMKFVPIRSLSEPGGPELPEDQVRAYATQFTVTDEETGEDREGKPTDHFPHSALENAADLSLMAKARAGFHGPMGTGISQLFNGIGGPEYIYSVLTGFPEEPPKCAEGHEPDGFYYNRAFQNGSVPDTCKDANGVKTTAGSWIAMPPPLMDDLVEYADGHDASVHAMAEDVSAFLMWAAEPKLMARKQAGFTAVMFLTVLSVLLYLTNKRLWAGVKGKKKTNV
chain 3: B1 chain
chain 4: MFSFIDDIPSFEQIKARVRDDLRKHGWEKRWNDSRLVQKSRELLNDEELKIDPATWIWKRMPSREEVAARRQRDFETVWKYRYRLGGFASGALLALALAGIFSTGNFGGSSDAGNRPSVVYPIE
notes: also called cyt bc1; cyt bc1-nanodisc complex
With B2 the “stoichiometry N” value [3] was 2.
